Laboratory results published in US20200340060A1, “COMPOSITIONS AND METHODS FOR IDENTIFYING AND TREATING LIVER DISEASES AND MONITORING TREATMENT OUTCOMES” (Gilead Sciences, Inc., priority 2017, published 2020).

Tested on: liver fibrosis in NASH subjects
Assay: Simtuzumab clinical studies (SIM 0105/0106) in NASH, CRN fibrosis stage change at week 48
Assay type: in vivo, human
Details: SIM study samples

B1: simtuzumab (antibody, chains of the INN, looked up, V domains shown)
VH: QVQLVQSGAEVKKPGASVKVSCKASGYAFTYYLIEWVRQAPGQGLEWIGVINPGSGGTNYNEKFKGRATITADKSTSTAYMELSSLRSEDTAVYFCARNWMNFDYWGQGTTVTVSS
VL: DIVMTQTPLSLSVTPGQPASISCRSSKSLLHSNGNTYLYWFLQKPGQSPQFLIYRMSNLASGVPDRFSGSGSGTDFTLKISRVEAEDVGVYYCMQHLEYPYTFGGGTKVEIK
efficacy on fibrosis stage change: lack of efficacy
